Measurements as given in patent US20140271661A1 (published 2014).

Molecular target: human antithrombin β complexed with heparin (human ATβH) (human, UniProt P01008 33-464, lacks glycosylation at Asn135 (β glyco-isoform); complexed with heparin)
Experiment: Biacore

human antithrombin β complexed with heparin (human ATβH), sequence (P01008 33-464, one chain of several): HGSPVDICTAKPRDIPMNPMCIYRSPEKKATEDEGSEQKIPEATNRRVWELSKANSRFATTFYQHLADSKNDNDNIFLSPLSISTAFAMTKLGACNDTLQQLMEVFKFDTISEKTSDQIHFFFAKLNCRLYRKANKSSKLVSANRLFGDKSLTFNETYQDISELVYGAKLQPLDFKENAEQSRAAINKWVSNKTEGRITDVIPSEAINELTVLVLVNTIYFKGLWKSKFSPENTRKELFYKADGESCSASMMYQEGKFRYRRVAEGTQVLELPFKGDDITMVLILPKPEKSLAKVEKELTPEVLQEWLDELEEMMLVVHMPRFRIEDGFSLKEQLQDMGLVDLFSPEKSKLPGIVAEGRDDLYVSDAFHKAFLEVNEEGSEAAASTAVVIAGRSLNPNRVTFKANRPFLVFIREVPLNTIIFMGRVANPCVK

Kd | Binder
17.2 nM | TPP-2019 hIgG (antibody, V domains shown) VH: EVQLLESGGGLVQPGGSLRLSCAASGFTFSRYAMYWVRQAPGKGLEWVSRISPSGGKTHYADSVKGRFTISRDNSKNTLYLQMNSLRAEDTAVYYCARLSQTGYYPHYHYYGMDVWGQGTTVTVSS VL: DIQMTQSPATLSLSPGERATLSCRASQRVSSSYLTWYQQKPGQAPRLLIYGASSRATGIPDRFSGSGSGTDFTLTISRLEPEDFAVYYCQQYDSTPPLTFGGGTKVEIKR
11.9 nM | TPP2009 hIgG1 (antibody, V domains shown) VH: EVQLLESGGGLVQPGGSLRLSCAASGFTFSAYRMGWVRQAPGKGLEWVSRIYSSGGRTRYADSVKGRFTISRDNSKNTLYLQMNSLRAEDTAVYYCAREKASDLSGSFSEALDYWGQGTLVTVSS VL: AQSVLTQDPAVSVALGQTVRITCQGDSLRSYYASWYQQKPGQAPVLVIYGKNNRPSGIPDRFSGSSSGNTASLTITGAQAEDEADYYCNSRDSSGNHLVFGGGTKLTVLG
18.9 nM | TPP-2016 hIgG (antibody, V domains shown) VH: EVQLLESGGGLVQPGGSLRLSCAASGFTFSKYRMDWVRQAPGKGLEWVSRIGPSGGKTTYADSVKGRFTISRDNSKNTLYLQMNSLRAEDTAVYYCAREKTSDLSGSYSEALDYWGQGTLVTVSS VL: DIQMTQSPATLSVSPGERATLSCRASQNINRNLAWYQQKPGRAPRLLIHTASTRAPGVPVRITGSGSGTEFTLTISSLEPEDFAVYFCQQYASPPRTFGQGTKVEIKR
